Assay [1] concerns the target actin (UniProt P68135).
Assay [2] has as its target actin (UniProt P68135). Briefly: co-sedimentation; MYO3A (0.5 µM) equilibrated with actin (0-60 µM) in KMg50 buffer (50 mM KCl, 1 mM EGTA, 1 mM MgCl2, 10 mM imidazole pH 7.0, 1 mM DTT) with ATP regeneration system, 1 mM ATP added, centrifuged 10 min at 25 °C; fraction bound from GFP fluorescence of the supernatant and from Coomassie SDS-PAGE, hyperbolic fit; steady-state actin affinity (K_Actin) in the presence of ATP.

Take “MYO3AΔK 2IQ c-GFP WT (from UniProt Q8NEV4-1 1-1616) (domain or fragment)”: the K (ATPase): actin concentration at which the steady-state actin-activated ATPase activity is one-half maximal (KMg50 buffer, 25 °C) in assay [1] amounted to 1.93 µM. The Kd in assay [2] worked out at 4.69 µM.

In turn, “MYO3AΔK 2IQ c-GFP L697W (from UniProt Q8NEV4-1 1-1616) (domain or fragment)” had a K (ATPase): actin concentration at which the steady-state actin-activated ATPase activity is one-half maximal (KMg50 buffer, 25 °C) in assay [1] of less than 0.77 µM. In addition, the Kd in assay [2] is 2.21 µM.

The Kd is the equilibrium constant for the complex coming apart.
